In publication PMC3561947:

Target: His-tagged human polι P680A (pJRM86) (human)
Assay: far-Western, overlay or dot blot

- percent of wild type (% of wild type): 40
Substance: in vitro translated 35S-labeled ubiquitin (from pBP129) (from UniProt P0CG47 1-76) (natural protein)
